Substitutions are numbered along the chain they refer to.
T1: CD19 (human, UniProt P15391 20-556)
T1 construct: whole, on cells; also called CD19 on NALM-6 cells
T1 sequence (looked up): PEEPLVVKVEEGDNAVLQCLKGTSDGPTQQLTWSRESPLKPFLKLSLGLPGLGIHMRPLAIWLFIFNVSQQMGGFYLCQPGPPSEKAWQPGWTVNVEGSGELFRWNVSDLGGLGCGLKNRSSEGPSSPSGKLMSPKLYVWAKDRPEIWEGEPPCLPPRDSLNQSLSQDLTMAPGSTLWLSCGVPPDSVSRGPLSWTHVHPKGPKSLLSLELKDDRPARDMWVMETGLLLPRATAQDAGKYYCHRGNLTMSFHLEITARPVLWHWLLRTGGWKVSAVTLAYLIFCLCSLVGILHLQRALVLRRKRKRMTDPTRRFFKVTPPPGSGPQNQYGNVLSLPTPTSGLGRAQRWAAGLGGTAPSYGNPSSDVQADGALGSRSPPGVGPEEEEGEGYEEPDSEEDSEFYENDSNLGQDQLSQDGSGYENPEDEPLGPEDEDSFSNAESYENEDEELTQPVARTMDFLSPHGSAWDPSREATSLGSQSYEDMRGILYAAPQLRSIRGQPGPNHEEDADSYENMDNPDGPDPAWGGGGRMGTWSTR

B1: anti-CD19×anti-CD3 (VH2/VL3) (SEQ ID NO.:182) (bispecific antibody)
chain: DIQLTQSPASLAVSLGQRATISCKASQSVDYDGDSYLNWYQQIPGQPPKLLIYDASNLVSGIPPRFSGSGSGTDFTLNIHPVEKVDAATYHCQQSTEDPWTFGGGTKLEIKGGGGSGGGGSGGGGSQVQLQQSGAELVRPGSSVKISCKASGYAFSSYWMNWVKQRPGQGLEWIGQIWPGDGDTNYNGKFKGKATLTADESSSTAYMQLSSLASEDSAVYFCARRETTTVGRYYYAMDYWGQGTTVTVSSGGGGSDVQLVQSGAEVKKPGASVKVSCKASGYTATRYTMHWVRQAPGQGLEWIGYINPSRGYTNYAQKLQGRVTMTTDTSTSTAYMELSSLRSEDTATYYCARYYDDHYCLDYWGQGTTVTVSSGEGTSTGSGGSGGSGGADDIVLTQSPATLSLSPGERATLTCRASSSVSYMNWYQQKPGKAPKRWIYDTSKVASGVPARFSGSGSGTDYSLTINSLEAEDAATYYCQQWSSNPLTFGGGTKVEIK
notes: As m4: bispecific single chain, His-tagged; also called pEF anti-CD19×anti-CD3 (VH2/VL3)
B2: anti-CD19×anti-CD3 (VH3/VL3) (SEQ ID NO.:188) (bispecific antibody)
chain: B1 chain with M336L, E337Q, L338M, S339N, R342K, S343T, T348V
notes: As m4: bispecific single chain, His-tagged; also called pEF anti-CD19×anti-CD3 (VH3/VL3)
B3: anti-CD19×anti-CD3 (VH3/VL2) (SEQ ID NO.:186) (bispecific antibody)
chain: B1 chain with M336L, E337Q, L338M, S339N, R342K, S343T, T348V, T414S, S419Q
notes: As m4: bispecific single chain, His-tagged; also called pEF anti-CD19×anti-CD3 (VH3/VL2)
B4: anti-CD19×anti-CD3 (VH2/VL1) (SEQ ID NO.:178) (bispecific antibody)
chain: B1 chain with V395Q, L396M, A401S, T402S, L405A, P407V, E409D, A411V, L413I, S419Q
notes: also called pEF anti-CD19×anti-CD3 (VH2/VL1)
B5: anti-CD19×anti-CD3 (VH5/VL3) (SEQ ID NO.:194) (bispecific antibody)
chain: B1 chain with A284F, Q317D, K318S, L319V, Q320K, V323F, M325I, T329K
notes: As m4: bispecific single chain, His-tagged; also called pEF anti-CD19×anti-CD3 (VH5/VL3)
B6: anti-CD19×anti-CD3 (VH5/VL2) (SEQ ID NO.:192) (bispecific antibody)
chain: B1 chain with A284F, Q317D, K318S, L319V, Q320K, V323F, M325I, T329K, T414S, S419Q
notes: As m4: bispecific single chain, His-tagged; also called pEF anti-CD19×anti-CD3 (VH5/VL2); anti-CD3 (VH5/VK2)

biological target: T2, human CD3 (human, UniProt P07766 23-207; P04234 22-171; P09693 23-182); test: FACS on CD3-enriched PBMCs
T2 construct: whole, on cells; also called CD3 antigen; human CD3 complex

Binder	binding result
B1	no binding (tested: non-diluted supernatant)
B2	no binding (tested: non-diluted supernatant)
B3	no binding (tested: non-diluted supernatant)
B4	no binding (tested: non-diluted supernatant)

biological target: T2, human CD3; test: FACS, second experiment, crude supernatant on CD3-enriched PBMCs
Experimental: (§1) In order to analyze the binding efficacy of the deimmunized constructs to CD3 and CD19 a FACS-based assay was performed. Initially, crude supernatants were tested for binding on CD3-enriched PBMCs or CD19-positive NALM-6 cells. Cells were incubated with non-diluted supernatants for 30 minutes at 8° C. Upon two wash steps the cells were labeled with an anti-His antibody (Qiagen) under the same conditions. After additional wash steps binding of the constructs was detected with a FITC-conjugated sheep anti-mouse antibody (Sigma). Cells were analyzed with a FACS Calibur cytometer (B&D). As controls supernatants of anti-CD19×anti-CD3 and GFP-transfected cells were included. […] The positive control, which was a non-deimmunized anti-CD19×anti-CD3 construct reached a MFI of around 60 showing that the deimmunized constructs comprising anti-CD3 (VH5/VL1) (SEQ ID NO.:190), anti-CD3 (VH5/VL2) (SEQ ID NO.:192), anti-CD3 (VH5/VL3) (SEQ ID NO.:194), anti-CD3 (VH7/VL1) (SEQ ID NO.:196), anti-CD3 (VH7/VL2) (SEQ ID NO.:198) and anti-CD3 (VH7/VL3) (SEQ ID NO.:200) bound CD3 with extremely high efficacy.

Binder	MFI [MFI]
B1	~6
B2	~6
B3	~6
B4	~6

biological target: T2, human CD3; test: FACS, non-diluted crude supernatant on CD3-enriched PBMCs; anti-His + FITC anti-mouse
Experimental: as §1

Binder	MFI [MFI]	fold over the negative control (secondary antibody only, MFI ca. 3.5) [fold]
B5	≥ 90	~25
B6	≥ 90	~25

biological target: T1, CD19; test: FACS, crude supernatant on CD19-positive NALM-6 cells; negative control MFI ca. 3
Experimental: as §1
The FACS-based binding assay was also carried out for CD19. In this experiment CD19 and a secondary antibody was as a negative control. In this experiment, all assayed constructs achieved a MFI of at least 80 while the MFI of the negative control was ca. 3.

Binder	MFI [MFI]
B1	≥ 80
B5	≥ 80
B2	≥ 80
B3	≥ 80
B6	≥ 80
B4	≥ 80
